Laboratory results: a protein production outcome set (Wang et al. 2014)

Experiment: label from the status in PepcDB records

| Sequence | protein production |
| --- | --- |
| MLEVHRTHRAKILNYSQVEDSLNRHGWSASKLWNVANYHSRQVWEETREIPGHEELKNELKGHDKYKGLHSQSSQRVLEELAEAFNSWYSSDDERDNPPGYRKQNYYDQQGRRVHEEHPLSTVTWKQNGIRHDTKNNRVRLSKGANHKEHPKAWEYILVEYETRPGVEVENLQQVRAVYDQTKERWELHLVCKEEIETPDAPGTETAGIDLGISNFAAVAYSTEDADLYPGNRLKQDGYYFPKEIANCDDSSGDRATRLHHKWSERRTHFFHSLAKHIVEKCIERSVGRINVGDLEGIREDENAKSKNWGRHGNLDLHGWAFDRFTSILEYKAKVEGIEVMEVSERDTSKTCCVCGREDDSQRVERGLYVCESCDAAFNADVNGAENIRLDIDEESNSESTGQLSGDRSTGWLAQPGVYLYDLSCGFQPQREVVDSKP | failed |
| PGKEAQPAENVEFIYENGTWKLSQSWACTLIKNTVAPEQIPAMCADPAAPAPEGQPAPEQAPAPEAPAPEQAPAPEAPAPQ | failed |
| MQGNLTALLITAIIVLTVVCIGFLAGRDKSSRTSVEEWSVGGRRFGGLLVWFLVGADLYTAYTFLGLTSTAFTGGSVAFFAIPYSVLAYFIAYFFLPKLWKVAKIHKLTTLADYARERFNSKLLASLVAIVGVLMLIPYICLQLSGIQDTLQVAGTGYINVKFVVIISFILVALYTFFSGIKGPTYTAIIKDILVWVIMLFMVVSLPLIHFNGWTPMIDTLVKEAPQMLTIPSEGPKGIPWFITASIVSALALFMWAHAATGVFTAKSADAVRKNSMFLPLYNIVLILVIFLGFIAFLVLPEDTNPRLALLHLIQTSYGGVAQGFAYATIALASLIPCSIMAIGASNLFANNLYRDLIHPNVSQSKLTLVTRSMVFVVIGLALLFGMLFPTALVTLQLLGVSGMVQIFPAIAVSLFWKNQTKEATVIGLLAGLAVTFIVYITQSAHGIYEGFWGLAANMIAVVILNPLFVKNAGSNPVIEGLFGKKQDANPNQKGA | failed |
| MCTPFIFVVYAKSKYLCVLISNEMGKNKLEKFADMASYPHVFEYPYSAVDNVPFDMKGKWHQEFFGNDHPIVLELGCGRGEYTVGLGRMFPDKNFIAVDIKGSRMWTGATESLQAGMKNVAFLRTNIEIIERFFAAGEVSEIWLTFSDPQMKKATKRLTSTYFMERYRKFLKPDGIIHLKTDSNFMFTYTKYMIEANQLPVEFITEDLYHSDLVDDILSIKTYYEQQWLDRGLNIKYIKFRLPLEHHHHHH | failed |
| MKRAAAKHLIERYYHQLTEGCGNEACTNEFCASCPTFLRMDNNAAAIKALELYKINAKLCDPHP | not failed |
| PGLSLRTLDMDRLEEEVRTVRDIYNDAWSDNWGFVPMTEGELQQLADELKQIVDPEIVFFVEHEGTPVGFSVALPDVNQALRHVPDGRLFPYGVPSGLTTLFLHMQYGVHECRMPLMGIRKDYQGKGLDSMLVLATIENGPANGYAACEMSWVLDTNDRLKNHVESLGAVVDKEYAMFETPLSQND | failed |
| DAGGGVGKELVDLKIIWNKTKHDVKVPLDSTGSELKQKIHSITGLPPAMQKVMYKGLVPEDKTLREIKVTSGAKIMVVGSTI | not failed |
| MRRAGYLHLYGLNLVFDRVGKGPPVLLVAEEASRWPEALPEGYAFYLLDLPGYGRTEGPRMAPEELAHFVAGFAVMMNLGAPWVLLRGLGLALGPHLEALGLRALPAEGVEVAEVLSSKLSYGNIDLGGNL | not failed |
| MNLEPPKAEIRSATRVMGGPVTPRKGPPKFKQRQTRQFKSKPPKKGVQGFGDDIPGMEGLGTDITVICPWEAFNHLELHELAQYGII | not failed |
| MFPQRSSELYRTPVTHQPPPALELAGNLEYPNLNIADLNARLENLSPRLHDCWDSIAINDHNHLALATNRREGRQWWGMLFGYGRDQMHHMSVDSANFKLQAEHTVNIVRYAEDDFLLVALGDTRLQAWSTYSKVRDSQSPYCLFLVGESSAHPTPISQLSVFKADPRTAVSGSADSTLNVWDLSGADMVSTYRSRSSHTDKLTGLATPAASVDKFVTCDRGGCARLWDVRAAAPSSTCLYADASHVLSFTSAAWAAASELQGDNHIYLGDYDGKVHTLDIRVPRKLAETREYFDKGHVAQLLINGPHLAAMSNLPASVKVANVQAGHEFIYTHQDTHSRLTDAVWTDDSTLITIGHGRKMVTHAIK | failed |
| FANTATVAVSQIVEHPALDATRQGLLDGLKAKGYEEGKNLEFDYKTAQGNPAIAVQIARQYVGESPDVLVGIATPSAQALVSATRTIPVVFTAVTDPVGAKLVKSMKQPGKNVTGLSDLSPVAQHVELIQEILPQVKSIGVVFNPGEANAVTLVNLLKESAEAKGIKVVEATALKSADVQSATQAIAAKSDILYAPTDNTVASAIEGMIVAANQAKKPVFGGATSYVEKGAIAGLGFDYYQVGVQTADYVAAILDGQEPGKLDVKVATGSDLVINESAASKLGIQLPSSVVQRATSMQ | failed |
| MRASTLLIIAGMFIVSLYALIEVSFYSSQVTVHRPDVRAPVIEVPSINLTETINNRSVFYGVYHEPMSYPPGNRTVILFGHRTLYGSPFLHLDKLRAGDSVYLNWPGVGFAEYRVNRSFIVPASYQMPVNQGAKLFLITCHPLGSTRERLIVECHLEGIRPYQRNVRVDNPKSYYSIPIILGFLSAGLLVTRFYPVEEDRRFLLAAVIGLTVFLVLGYLFPIPPEFISDKLMEFNNILGI | failed |
| DKSNKLQNLVAEQLVGCGFNEILNNSLTRAAYYDGLESYPSKNLVMLLNPLSADLNCMRQTLLFGGLESIAHNANRKNADLKFFEFGNCYHFDAEKKNPEKVLAPYSEDYHLGLWVTGKMVSNSWAHADENTSVYELKAYVENIFKRLGLDLHSLVVGNLSDDIYSTALTVNTKGGKRLATFGVVTKKMLKAFDVDNEVYYADLNWKELM | not failed |
| MLVWEELREKALNKIYHDKEIGYLDPDILGFLLAFYRNRNDVYTQSSCSGRITIVDAEMPWDRKNSTIIFKNHLRITEQDLEDVLSKNQVRRLWLIVQGPIIHIYAKNIETGWDILKIAREAGFKHSGILATNQKGVLVELRTGIRMVHLLRESNTERVDKDKIKTLVNVCNEVLARGKQKMNLLKDLLSSSSNNSMELGKNSKLKTPI | not failed |
| MNELFDAKESLSPAEREDSLFQRLPTLIENAKANSEHYGNIFSGIDASIASNREGLAQFPITRKFNVPSQQQLKPPFGGLNSVAIGQMARVFQSPGPLYEAQTDESDFWRMGRAFHAAGFRRGDLVHNTLSYHFSPGGFIMDGGARACGCAVFPAGVGNTEAQIEAIKQLQPTGYTGTPSYLLTLLQKYQEQYGELPSFTKALVSGEAVTADMQQAFTDKGIAVFQAYASAELGLIAYQVAGEQGLVIGEDIIVEIVDPDGMPVPPGEVGEVVVTSLDEKFPLIRYATGDLSAYIENDANSPYTNMRIKGWMGRADSAVKVKGLFVYPHQIQEVCRRHEITGSLKIERDGFNDTITFCCHDVHVSAEDIQATLQSVTKLKGNVQFVANDADQPLINDLRS | failed |
| MVDDRFNHFRIINRVLEKGMPVLTPVSVAIGVWMAERFSNFASAVPWLFAVISFVGALGLTLVDIRERLRRPQAMIVTLFILQILMPLIALLVGMWLFDPMTRSGLVLAFSIPTGVMSLMWVTIYHGNKSFALAVVFIHTLLSPFFIPWTLRWFIGTDIPFDVGGMVWGLLWMIVIPSLLAISATRYTPKVVPMMKDVLSPIAKLHLFLIIMINSSVAAPFIRSWDLSLLYIILTVLAIALSGYGLGYVGARLLKLDESMRISMVYTCGMRNIGAGAALAVAYFPPPVMVPIVAAILFQQVLAAALGKWMRTGRTDQSLIERGTT | failed |
| MFFKQFYDKHLSQASYLIGCQKTGEAMIIDPIRDLSSYIRVADEEGLTITHAAETHIHADFASGIRDVAIKLNASIYVSGESDDTLGYKNMPNQTHFVQHNDDIYVGNIKLKVLHTPGHTPESISFLLTDEGAGAQVPMGLFSGDFIFVGDIGRPDLLEKAVKVEGSSEIGAKQMFKSIESIKDLPNYIQIWPGHGAGSPCGKSLGAIPTSTLGYEKQTNWAFSENNEATFIDKLISDQPAPPHHFAQMKKINQFGMNLYQPYTVYPATNTNRLTFDLRSKEAYHGGHIEGTINIPYDKNFINQIGWYLNYDQEINLIGEYHLVSKATHTLQLIGYDDVAGYQLPQSKIQTRSIHSEDITGNESHILDVRNDNEWNNGHLSQAVHVPHGKLLETDLPFNRNDVIYVHCQSGIRSSIAIGILEHKGYHNIINVNEGYKDIHLSLEHHHHHH | failed |
| MESLSIIFRWFVGLRSVGSSLGRKPDQTEETTLTTKLDIAPANDRELVVARIIDAPRENVYRCWTDTRLLTQWFSPKPWTTPRAEMDMRTGGSSLVIMADPDGNEFPNPGVFLEVIPGKKIIFTDAYTQAWEPSEKPFMTGVLTFEDEGEGRTRYIARVRHWSVADRERHEAMGFHVGWGQCTDQLEDLARTL | failed |
| MLNFKTFSDLRPKKTRAFVFVKILRLWNWPPNYFGEEPTMILVDEKGHRIDAKSSRHAYKEEMISTLREGKWYILSNFKVVVANPLERFSTHVFQIEFLKKTTMEPVTPKSRYHFIECVDFHTIKHAAPIQKKFVVDAMGVIESVSPIGKIPWVARDWESDFASRYLVFTLKDSMHKYIKCVAVGSSCEEFERKWYKKISEPNFKMEPVMIILRFWKISEFEGKPCLISVYGCSKVHIDPNFRGIDKNNYL | failed |
| MKKYIKPSAILLTLILSACSETKTVQQLISSGNSFVQVRDFSSAVIEFKNAVRLEPKNANARFELGNAYLEQGNFVNAEKEFSRAVELGLDFSNIAALMARVNTHLDKADEVYQLVERSDELTDDDYVEVLTYAGITALKQNRISQGQDYLTQAIVINPDAAYSRIAQAYVHYADREFSQGIVVISNLLNEKTDATEAMLIQGHLYYAQQEFEHASGAFALYLNYHPQDHKIRFFEVNSLIKAEKFEQANVITNTLLKAFKDSSLALQFKAQLEYQKKNYSAARDYAEEALQHGQDFLGAKIIAGVSSYFLGDVEQAYTKLNGIVERVPNNLLVKKILAVTKFELGYYADAAENFSSLEGLTSADLQLLKSSSASLMGIGYVDNALSLINKAEEFSPDNAQVAAQKGLMLLSQNDISGINSMKRAVELDPSLTYVQVALAIGYLNIGEENKAQKIADLYKDKIDEADVGHVLEGFIYLNNKQSANAQVSFEKALSLNPKNIASLYNLGLLHKRAAENSKAIIYFDRLIALSPEHKGALKSLVSIAVNKEYLEEVLTILVRNHQTDNLYSIIALAQVLRIDQQVAKAVTTLGGIDKSVKLTSNYFMLLGDSYLELEKYLKANAIFEQGLALEPKDYLLNIRYISTLEWLGDYTAALDQTRRLHKYYPNNINITTSLIYLEVRNKNYQEAKYLLEAIKGQKSNHHQLDAIAGEIYSYEKDYPQAIEHFSVVYEKEPTELNLLNLARTLGFDKQNKQAERLLELYLDKNPNNSKIRFLLAELYNPQDRKKRVVQYQVLSTQIPNNAIVFNNLAWNQFKLKQTAEALINIEKAYQLQPDSLAIQESYGVILIANNKLSQGINILESAILSGSTDAAAKEYLIKAKTLLNNQGKSSG | failed |
| MTFYDREAELDTLSDAVESPGADFVVVYGRRRVGKTELLKEFCANRPHIYFLAAQEAEHRQREKFLDQVADYFDERVPRIDGWDEAFEYLGEQLQREDLVVVIDEFPYLVAENDSLPSYVQGFVDQELDGTDSMIVLCGSSVSTMESEILGHESPLYGRRTAQLDVTPFSFQQAREVISYDIQDAIRSYAVTGGTPMYLTLFDYTQSLAANIQSHVLSPSAVLYNEPEFLLRTELRNPARYMSILEAVALGHTTPNEISGATGIDSGPLSKYLQTLRRLRLIERDVPVMASGKKSKRSRYRVADEFLRFWFRYVEPNRSSIEEAPEIVYDGTIEPDLPTHVATTFEDVCQEAVWEGIRRGTFDPYSEVGRWWYGEEEIDIVGLAPNDDRVLLAECKWTTDPVGEDLVESLRAKAEHVRWGPPDRDEQFALFSKSGFVDGLEAQLDDSWSLFTVADIDDLLTPS | failed |
